Laboratory results reported in patent US20150105327.

Key:
[1] = test system: recombinant human histone H2A (wild type)
[2] = test system: H2A with mutations of six other potential modification sites on the tail domains
[3] = test system: tailless histone H2A (N- and C-terminal tails deleted)

Sequence of recombinant His-VprBP wild type (chain, as listed by the source): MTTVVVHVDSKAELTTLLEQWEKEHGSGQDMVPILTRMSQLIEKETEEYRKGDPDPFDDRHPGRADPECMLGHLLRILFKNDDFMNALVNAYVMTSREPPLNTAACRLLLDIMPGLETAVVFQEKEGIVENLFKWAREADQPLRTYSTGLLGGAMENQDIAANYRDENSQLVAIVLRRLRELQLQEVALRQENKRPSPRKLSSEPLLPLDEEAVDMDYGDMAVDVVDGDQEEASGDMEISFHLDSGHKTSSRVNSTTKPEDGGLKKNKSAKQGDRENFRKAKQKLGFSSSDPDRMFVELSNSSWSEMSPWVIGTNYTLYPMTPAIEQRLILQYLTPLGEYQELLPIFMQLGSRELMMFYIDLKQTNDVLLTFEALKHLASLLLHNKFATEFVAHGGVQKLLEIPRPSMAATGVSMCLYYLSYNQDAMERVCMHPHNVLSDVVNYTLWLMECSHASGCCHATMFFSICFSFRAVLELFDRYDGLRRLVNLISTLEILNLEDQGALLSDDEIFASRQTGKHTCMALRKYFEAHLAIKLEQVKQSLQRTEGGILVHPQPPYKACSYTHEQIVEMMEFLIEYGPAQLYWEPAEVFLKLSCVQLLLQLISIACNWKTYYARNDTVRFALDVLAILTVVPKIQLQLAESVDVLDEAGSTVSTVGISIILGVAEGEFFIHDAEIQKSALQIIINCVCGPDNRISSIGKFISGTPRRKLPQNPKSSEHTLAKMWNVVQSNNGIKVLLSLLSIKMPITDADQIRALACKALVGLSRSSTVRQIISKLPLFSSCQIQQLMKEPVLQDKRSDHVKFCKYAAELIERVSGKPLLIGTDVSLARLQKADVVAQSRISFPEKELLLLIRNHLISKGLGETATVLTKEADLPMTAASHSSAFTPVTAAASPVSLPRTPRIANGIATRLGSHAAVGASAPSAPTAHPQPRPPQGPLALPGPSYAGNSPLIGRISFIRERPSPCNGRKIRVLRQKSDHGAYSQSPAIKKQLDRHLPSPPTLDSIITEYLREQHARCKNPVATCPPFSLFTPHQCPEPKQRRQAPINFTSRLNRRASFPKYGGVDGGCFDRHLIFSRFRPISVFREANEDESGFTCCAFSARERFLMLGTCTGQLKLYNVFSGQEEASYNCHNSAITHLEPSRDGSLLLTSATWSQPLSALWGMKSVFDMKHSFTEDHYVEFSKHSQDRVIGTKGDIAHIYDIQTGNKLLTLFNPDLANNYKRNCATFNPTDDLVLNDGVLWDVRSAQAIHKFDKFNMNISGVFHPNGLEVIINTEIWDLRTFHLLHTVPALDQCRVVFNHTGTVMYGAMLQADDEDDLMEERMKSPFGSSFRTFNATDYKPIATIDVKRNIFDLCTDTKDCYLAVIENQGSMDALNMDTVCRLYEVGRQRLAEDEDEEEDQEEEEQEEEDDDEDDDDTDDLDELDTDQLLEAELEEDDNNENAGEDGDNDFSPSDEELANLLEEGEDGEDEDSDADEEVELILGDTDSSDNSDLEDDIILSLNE
Sequence of VprBP kinase-dead mutant K194R (chain, as listed by the source K194R): as the sequence (chain, as listed by the source) above, with K194R counted along it

Row | Substance | H2A phosphorylation in nucleosomes, in vitro kinase assay, autoradiography [1] | H2A phosphorylation in nucleosomes, in vitro kinase assay, autoradiography [2] | phosphorylation of free individual histones, in vitro kinase assay with [g-32P]-ATP, autoradiography (recombinant histone H4) | phosphorylation of free individual histones, in vitro kinase assay with [g-32P]-ATP, autoradiography (recombinant histone H2B) | H2A phosphorylation in nucleosomes, in vitro kinase assay, autoradiography (histone H2A T120A mutant) | H2A phosphorylation in nucleosomes, in vitro kinase assay, autoradiography [3] | phosphorylation of free individual histones, in vitro kinase assay with [g-32P]-ATP, autoradiography (recombinant histone H3) | phosphorylation of H2A in reconstituted nucleosomes, in vitro kinase assay, autoradiography [1] | phosphorylation of free individual histones, in vitro kinase assay with [g-32P]-ATP, autoradiography [1]
1 | VprBP kinase-dead mutant K194R | mutation of this lysine residue completely abrogated kinase activity | – | – | – | – | – | – | – | –
2 | recombinant His-VprBP wild type | – | mutations of six other potential modification sites on the tail domains had little effect | a robust phosphorylation of H2A, but not other core histones | a robust phosphorylation of H2A, but not other core histones | VprBP-mediated phosphorylation is completely abolished by mutation of T120 | simultaneous deletion of the N- and C-terminal tails of H2A blocks H2A phosphorylation by VprBP | a robust phosphorylation of H2A, but not other core histones | VprBP generated clear labeling of H2A in the nucleosome after autoradiography | Autoradiograph of the kinase reaction products showed a robust phosphorylation of H2A, but not other core histones
